Data from the supplement of paper PMC10567573.

B1: MMP1 (parent)
chain: FVRGDHRDNSPFDGPGGNLAHAFQ

Variants of: B1
Assay: protein stability index of a GFP-peptide fusion (GPS, HEK-293T) (PSI 1-6); higher = more stable
Details: c terminus: a fixed tail appended
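Also: lentivirally expressed fusions sorted by FACS into six bins by GFP to DsRed ratio, PSI derived from sequencing read proportions per bin multiplied by bin number.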

Protein stability index: each site, then its substitutions
R7: A 2.02; K 1.68; G 1.26; T 2.18; M 1.78; C 1.82; E 1.91; V 2.04; P 2.8; N 1.7; I 2.77; Y 2.18; F 2.83; W 2.33; D 1.56; S 1.37; H 2.91; L 3.54; Q 2.55
V2: Q 2.75; P 2.85; W 2.25; T 3.07; N 3.53; S 2.76; Y 3.15; R 3.48
G14: H 1.39; F 2.93; T 1.76; D 2.25; E 2.06; Q 3.14; A 2.12; P 1.91; L 2.44; V 3.45; Y 2.2; S 1.89; N 1.7; I 2.51; K 1.77; C 2.99; W 1.69; R 1.6
D13: A 1.37; K 1.59; R 1.48; L 1.47; G 2.6; T 2.27; S 2.56; H 3.02; N 1.77; Y 3.03; M 1.03; V 3.19; P 3.31; E 2.57; I 1.63; C 2.36; Q 2.21
G4: I 1.64; Q 2.42; A 2; T 2.52; W 1.94; S 2.41; H 2.26; E 1.76; Y 2.09; D 3.02; V 1.94; C 2.67; K 1.57; P 1.73; R 1.56; N 2.04; L 1.68; F 2.06
D8: W 3.09; N 2.68; T 2.28; Y 3.24; F 4.46; C 3.26; R 1.62; P 2.12; A 1.63; L 2.25; I 1.87; Q 3.21; V 2.25; M 3.46; S 2.08; E 1.31; K 2.78; H 2.29; G 1.84
S10: D 1.35; K 2.63; H 1.51; I 1.71; Y 1.71; P 2.84; E 1.53; R 2.03; N 1.38; Q 1.6; A 2.32; G 1.3; V 1.42; M 2.11; C 1.83; F 2.42; T 2.13; L 1.83
A20: D 1.74; I 2.04; P 1.74; R 1.43; T 3.31; F 2.66; G 1.92; V 1.99; K 2.56; L 2.49; S 1.88; M 1.88; H 1.44; Y 1.29; C 2.69; Q 1.69; N 1.76; E 1.89
G16: R 2.45; C 2.63; T 2.32; L 2.81; S 2.23; Q 2.75; M 1.79; W 3.43; I 2.4; H 1.87; E 2.54; N 1.69; D 2.29; V 1.83; Y 2.73; P 1.75; A 1.34; K 1.52
P11: Q 2.02; D 2.79; L 1.34; W 1.84; A 1.81; C 2.61; T 1.8; V 2.06; E 2.06; K 1.78; R 2.4; S 2.91; Y 2.04; N 2.13; F 1.83; G 2.89; M 1.6; H 1.5; I 1.7
N9: T 2.13; S 2.41; A 2.53; M 2.27; Q 2.07; W 2.12; H 4.14; F 3.83; L 2.31; G 1.38; Y 2.58; D 1.8; P 2.4; K 2.47; C 1.93; E 2.15; I 3.22; V 1.87
F12: N 1.83; T 2.39; I 1.72; Q 1.8; C 2; G 2.24; W 3.55; Y 2.89; S 1.95; P 2.31; E 1.82; H 1.99; K 2.27; A 1.91; V 1.94; L 1.72; R 1.84; M 2.08; D 2.3
R3: K 1.45; N 2.34; E 2.73; D 1.73; T 2.13; L 2.13; I 2.11; H 1.85; A 1.63; W 1.86; Q 1.71; G 1.3; C 3.82; Y 1.93; P 1.44; M 1.57; F 1.69; S 1.99; V 2.37
L19: R 1.66; H 1.39; Y 1.64; M 2.1; D 2.35; V 3.29; P 1.49; S 1.15; T 2.08; K 2.25; C 1.96; N 1.73; F 2; G 2.63; Q 1.51; E 1.99; A 1.38; I 1.95
H21: E 1.94; D 2.15; C 2.53; A 2.77
G17: V 2.43; L 2.29; M 3.38; W 2.48; C 2.62; P 1.37; K 1.92; D 1.82; N 2.48; S 2.3; E 1.6; Q 1.95; R 1.79; F 2.18; T 2.05; H 1.9; Y 3.31; A 1.58; I 2.43
H6: I 1.55; Q 1.42; M 2.16; R 1.99; P 1.48; E 1.76; T 1.58; N 1.33; L 2.64; S 1.85; G 2.26; A 2.42; F 3.13; K 2.57; D 2.5; V 2.48; C 2.02
P15: Y 2.52; R 3.76; T 1.38; K 1.94; I 1.72; M 2.72; N 2.11; H 1.79; G 1.61; E 2.37; A 1.53; W 1.87; L 1.95; F 2.1; Q 1.64; D 2.97; S 4.22
D5: F 2.45; V 1.81; A 2.15; K 3.58; I 1.66; E 1.5; P 2.27; T 3.73; G 1.34; S 2.75; R 3.46; N 2.52; W 2.86
N18: I 1.01; Y 1.7; M 1.99; A 2.74; T 1.92; C 1.5; V 2.14; R 3.01; G 1.99; P 2.17; K 2.5; H 1.88; S 2.18; E 2.15; Q 2.27; L 3.23; D 1.5; F 4.34
